Assays:
[1] = molecular target: T1, human GFRα3 expressed with a C-terminal myc-myc-hexahistidine tag (human, UniProt O60609 32-374, biotinylated (sites not given) in ELISA format 2 and in the Octet cross-competition; not in SPR); assay: blocking ELISA 2, biotin-hGFRα3-mmH to coated hARTEMIN-mmH + hRET-10His; IC50 cell 'enhancer'
T1 construct: also called hGFRα3-mmh; hGFRα3-mmH
Method: The equilibrated sample solutions were then transferred to the hARTEMIN-mmH-coated plate. […] Absorbance was recorded at 450 nm on a Victor X5 plate reader (Perkin Elmer) to determine the amount of free hGFRα3-hFc in the pre-equilibrated hGFRα3-hFc-antibody solutions that was able to bind to the plate coated with hARTEMIN-mmH. IC₅₀ values, defined as the concentration of antibody required to reduce the signal from a constant concentration of hGFRα3-hFc by 50%, were calculated from the data using Prism software from GraphPad. The absorbance measured at the constant amount of 120 pM hGFRα3-hFc in the absence of anti-GFRα3 antibody is defined as 0% blocking and the absorbance with no added hGFRα3-hFc is defined as 100% blocking. The observed absorbance in the wells containing the highest antibody concentration was used to calculate the maximum blocking percent shown in the table.
In the second ELISA format, the plates, samples and data were processed similarly as for the first format except both hARTEMIN-mmH and human RET with a C-terminal 10 histidine tag (hRET-10His; R&D Systems, #1168-CR/CF) were coated for the blocking ELISA experiment. The 96-well microtiter plates were coated with a mixture of 1.2 ug/ml hARTEMIN-mmH and 6.9 ug/ml hRET-10His proteins in PBS overnight at 4° C. and then blocked with a solution of 0.5% (w/v) BSA. A constant amount of biotinylated human GFRα3 with a C-terminal myc-myc-hexahistidine tag (biotin-hGFRα3-mmH; SEQ ID:370) at 1 nM was pre-mixed with varied amounts of anti-GFRα3 antibodies, ranging from 0 to ˜100 nM in serial dilutions, followed by a 1 hour incubation at RT to allow antibody-biotin-hGFRα3-mmH binding to reach equilibrium. The equilibrated samples were then transferred to the coated plate. After 1 hour of binding, the plate was washed, then the bound biotin-hGFRα3-mmH was detected using HRP conjugated streptavidin (Pierce, #N200), and colorimetric signals were developed using TMB HRP substrates.

[2] = molecular target: T2, human GFRα1 expressed with a C-terminal human Fc tag and a hexahistidine tag (human, UniProt P56159 25-429, limits assumed); assay: BLI Octet, antigen captured on anti-hFc tips
T2 construct: bought protein; also called hGFRα1-hFc-6His; hGFRα1-hFc-6his
T2 sequence (looked up): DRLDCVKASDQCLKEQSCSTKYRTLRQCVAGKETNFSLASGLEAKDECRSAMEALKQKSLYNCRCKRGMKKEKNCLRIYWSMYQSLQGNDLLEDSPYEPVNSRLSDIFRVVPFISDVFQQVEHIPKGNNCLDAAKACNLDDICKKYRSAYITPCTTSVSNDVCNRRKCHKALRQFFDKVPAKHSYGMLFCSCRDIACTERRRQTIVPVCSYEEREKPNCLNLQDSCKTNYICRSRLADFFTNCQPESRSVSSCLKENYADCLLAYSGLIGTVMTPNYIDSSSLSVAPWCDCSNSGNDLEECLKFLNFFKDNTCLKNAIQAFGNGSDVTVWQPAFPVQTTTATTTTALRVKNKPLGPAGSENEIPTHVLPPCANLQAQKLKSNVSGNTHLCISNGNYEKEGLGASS
Method: The ability of anti-GFRα3 antibodies to bind to GDNF-family receptors was assessed using an Octet Red biosensor (Fortebio, Inc.). Antibodies were tested for binding to either human GFRα1 expressed with a C-terminal human Fc tag and a hexahistidine tag (hGFRα1-hFc-6His, R&D Systems #714-GR), human GFRα1 expressed with only a C-terminal human Fc tag (hGFRα1-hFc; SEQ ID: 376), human GFRα2 expressed with a C-terminal human Fc tag and a hexahistidine tag (hGFRα2-hFc-6His, R&D Systems #613-FR), human GFRα3 expressed with a C-terminal human Fc tag (hGFRα3-hFc, SEQ ID:371), or an irrelevant human Fc tagged protein. Antigens were captured onto anti-human Fc sensor tips from 10 ug/mL solutions for 5 minutes. The coated sensor tips were then blocked with a 100 ug/mL solution of irrelevant human Fc antibodies for 5 minutes. Blocked sensor tips were then submerged into wells containing […] of each anti-GFRα3 antibody or buffer alone for 10 minutes. The experiment was performed at 25° C. with a flow rate of 1000 rpm using HBST+BSA buffer (10 mM HEPES, 150 mM NaCl, 3 mM EDTA, 0.05% w/v Surfactant P20, 0.1 mg/mL BSA, pH 7.4). The binding response (measured in units of nm) at each step of the experiment was monitored and recorded.

[3] = molecular target: T3, cynomolgus GFRα3 on HEK293/MfGFRα3/MfRet/SRE-Luc cells (cynomolgus, UniProt O60609 1-400 (human entry), limits assumed); assay: cell-based or functional assay
T3 chain: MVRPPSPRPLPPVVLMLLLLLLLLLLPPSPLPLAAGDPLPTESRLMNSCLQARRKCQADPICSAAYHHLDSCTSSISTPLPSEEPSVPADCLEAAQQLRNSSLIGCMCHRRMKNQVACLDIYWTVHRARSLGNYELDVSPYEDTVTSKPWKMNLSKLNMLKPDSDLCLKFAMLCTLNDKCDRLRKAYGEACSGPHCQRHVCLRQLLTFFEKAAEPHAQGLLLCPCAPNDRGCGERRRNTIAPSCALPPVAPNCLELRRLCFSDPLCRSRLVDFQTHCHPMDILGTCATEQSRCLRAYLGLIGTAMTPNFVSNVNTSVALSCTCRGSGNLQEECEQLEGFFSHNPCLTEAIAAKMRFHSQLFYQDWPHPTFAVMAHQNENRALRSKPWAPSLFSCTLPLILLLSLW

T1 sequence (O60609 other isoform, or with tags, fused parts or gaps limits assumed): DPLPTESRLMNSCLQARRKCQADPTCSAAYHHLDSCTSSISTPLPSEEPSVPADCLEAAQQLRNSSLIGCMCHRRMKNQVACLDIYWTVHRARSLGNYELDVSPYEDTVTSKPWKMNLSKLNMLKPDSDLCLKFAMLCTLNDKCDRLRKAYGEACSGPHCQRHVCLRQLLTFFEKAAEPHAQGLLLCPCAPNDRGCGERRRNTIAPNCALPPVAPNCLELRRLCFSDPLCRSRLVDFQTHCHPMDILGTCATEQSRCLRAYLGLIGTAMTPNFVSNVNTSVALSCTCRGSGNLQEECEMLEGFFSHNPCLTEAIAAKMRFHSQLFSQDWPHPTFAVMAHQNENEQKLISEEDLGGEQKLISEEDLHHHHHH

| Binder | % max blocking [1] [%] | binding result [2] | IC50 (SRE-luc, HEK293/MfGFRα3/MfRET cells, 500 pM human ARTEMIN-MMH) [3] [nM] |
| --- | --- | --- | --- |
| H4H2236N3 (antibody, human IgG4, V domains shown, human IgG4 Fc (H4H)) VH: EVQLLESGGNLVQPGGSLRLSCAASGFTFSSYAMTWVRQAPGKGLEWVSTISGSGTSTYYADSVKGRFTISRDNSRDTVFLQMNSLRAEDTAVYYCSKPSALRFLHWLAMDVWGQGTLVTVSS VL: DIQMTQSPSSLSAFVGDRVTITCRASQDIRNYLDWFQQKPGKAPKSLIYAASNLQSGVPSRFGGSGSGTDFTLTINSLQPEDFVTYYCQQYNSYPPTFGGGTKVEIK | 68 | – | – |
| H4H2291S (antibody, human IgG4, V domains shown, human IgG4 Fc (H4H)) VH: EVQLVESGGGLVQPGESLRLSCAASGFTFSNYAMSWVRQAPGKGLEWVSVISGSGGSTYYADSVKGRFTMSRDNSKNTLYLQMNSLRAEDTAVYYCAKPPSRAARYFNYGMDVWGQGTTVTVSS VL: AIRMTQSPSSVSASVGDRVTITCRASQGISSWLAWYQQKPGKAPKLLIYAASSLQSGVPSRFSGSGSGTDFTLTISSLQPEDFATYYCQQANSFPFTFGGGTKVEIK | 28 | – | – |
| H4H2295S (antibody, human IgG4, V domains shown, human IgG4 Fc (H4H)) VH: EVQLVESGGGLVQAGGSLRLSCVASGFTFSSYAMSWVRQAPGKGLEWVSAISGSGGSTYSADSVKGRFTISRDNSKNTLYLQMNSLRAEDTAVYYCTKPSSYSSSNFYYGMDVWGQGTTVTVSS VL: DIQMTQSPSSVSASVGDRVTITCRASQGISSWLAWYQQKPGKAPKLLIYTASSLQSGVPSRFSGSGSRTDFTLTISSLQPEDFATYYCQQTNSLPLTFGPGTKVEIK | 44 | – | – |
| H4H2296S (antibody, human IgG4, V domains shown, human IgG4 Fc (H4H)) VH: not shown VL: DIVMTQSPSSVSASVGDRVTITCRASQGISSWLAWYQQKPGKAPKLLIYAASSLRSGVPSRFSGSGSGTDFTLTITSLQPEDFATYYCQHTNSFPFTFGPGTKVEIK | 91 | – | – |
| H4H2294S (antibody, human IgG4, V domains shown, human IgG4 Fc (H4H)) VH: EVQLVESGGGLVQPGGSLRLSCAASGFTFSSYAMSWVRQAPGKGLEWVSVISGSGGSTYYADAVKGRFTISRDNSKHTLYLQMNSLRAEDTAVYYCTKPSSYSSSNFYYGMDVWGQGSTVTVSS VL: DIQLTQSPSSVSASVGDRVTITCRASQGISSWLAWYQQKPGKAPKLLIYAASSLQSGVPSRFSGSGSGTDFTLTISSLQPEDFATYYCQQTNSFPFPFGPGTKVDIK | – | no binding (tested: 100 ug/mL) | 0.7 |
| H4H2342P (antibody, human IgG4, V domains shown, human IgG4 Fc (H4H)) VH: EVQLLESGGGLVQPGGSLRLSCAASGFTFSTYAMSWVRQAPGKGLEWVSAIRGNGVNTYYGDSMKGRFTISRDNSKDTLYLQMNSLRAEDTAVYYCAKNKWELLVFEYWGQGTLVTVSS VL: DIQMTQSPSSLSASVGDRVTITCRASQDISNYLAWYQQKPGKVPKLLIYAASTLQSGVPFRFSGSGSGTDFTLTISSLQPEDVATYYCQKYNSAPPFGPGTKVDIK | – | no binding (tested: 100 ug/mL) | 2.5 |
| H4H2355S (antibody, human IgG4, V domains shown, human IgG4 Fc (H4H)) VH: EVQLVESGGGLVQPGGSLRLSCAASGFTFSSYAMSWVRQVPGKGLEWVSAISGSGDNTYNAESVKGRFTISRDNSKNMLYLQMNSLRAEDTAVYYCAKTKFSSSLLFDYWGQGTLVTVSS VL: not shown | 95 | – | – |
| H4H2212N (antibody, human IgG4, V domains shown, human IgG4 Fc (H4H)) VH: EVQLLESGGGLVQPGGSLRLSCAASGFTFSSYAMSWVRQGPGKGLEWVSGISGSGGSTYNADSVKGRFTISRDNSKNTLYLQMNSLRAEDTAVYYCAKDSGTYWYYFDYWGQGILVTVSS VL: not shown | – | – | 1.8 |
| H4H2292S (antibody, human IgG4, V domains shown, human IgG4 Fc (H4H)) VH: EVQLVESGGGVVQPGRSLRLSCAASGFTFSSYGMHWVRQAPGKGLEWVSFIWYDGSNKYYADSVKGRFTISRDNSKNTLYLQMNSLTAEDTAVYYCARRGILTGTTAFDIWGQGTMVTVSS VL: DIQMTQSPSSLSASVGDRVTITCRASQSISSYLNWYQQKPGKAPKLLIYAASSLQSGVPSRFSGSGSGTDFTLTIRSLIPEDFATYYCQQTYNTPFTFGPGTKVEIK | – | no binding (tested: 100 ug/mL) | 1.5 |
| H4H2243N2 (antibody, human IgG4, V domains shown, human IgG4 Fc (H4H)) VH: QVQLVQSGAEVKKPGASVKVSCKASGYTFTSYGIIWVRQAPGQGLEWMGWISGYNGNTNYAQNLQGRVTMTTDTSTTTAYMELRSLRSDDTAVYYCARWGIATRPYYYYGMDVWGQGTTVTVSS VL: DIQMTQSPSSLSASVGDRVTITCRASQDITNYLAWFQQKPGKAPKSLIYAASSLQSGVPSKFSGSGSGTDFTLTISSLQPEDFATYYCQQYNSYPPTFGPGTKVDIK | – | no binding (tested: 100 ug/mL) | 0.8 |
| H4H2352S (antibody, human IgG4, V domains shown, human IgG4 Fc (H4H); also called H4H2352S-1) VH: EVQLVQSGAEVKKPGASVKVSCKASGYTFTNYGITWVRQAPGQGLEWMGWISAYNGNTGYAQKFQGRVTMTTDTSTSTAYMELRSLRSDDTAVYYCAREDYDFWRAFDIWGQGTMVTVSS VL: EIVLTQSPGTLSLSPGERATLSCRASQSVSSTYLAWLQQKPGQAPRLLIYGASSRATGIPDRFSGSGSGTDFTLTINRLEPEDFAVYYCQQYAYSPYTFGQGTKLEIK | – | no binding (tested: 100 ug/mL) | 1.3 |

Source: patent US20140056903A1 (Regeneron, published 2014)
